The values that follow come from the RNAGym collection of RNA variant scans (doi:10.1073/pnas.2313332121).

B1: TPR 5TU (parent)
chain: GGAUCUUCUCGAUCUAACAAAAAAGACAAAUCUGCCACAAAGCUUGAGAGCAUCUUCGGAUGCAGAGGCGGCAGCCUUCGGUGGCGCGAUAGCGCCAACGUUCUCAACUAUGACACGCAAAACGCGUGCUCCGUUGAAUGGAGUUUAUCAUG

Fewer inactive variants are shown than the library holds.

The variants in this data set derive from B1. In words: polymerase ribozyme fitness, log enrichment relative to wild type (log ratio); higher = more active; in vitro selection for triplet polymerase activity. Summed up:
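Mutant libraries were PCR-built and transcribed for each subunit of a heterodimeric triplet polymerase ribozyme and selected for one round in triplicate at −7 °C, frozen, before gel excision of extended constructs and streptavidin-bead capture. Input and output libraries were Illumina-sequenced, keeping genotypes with ≥10 input reads and ≥1 read per output. Fitness is a logarithmic ratio of genotype to wild-type enrichment, in base 2, using inverse-variance-weighted replicate averages.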
Turning to GGAUCUUCUCGAUCUAACAAAAAAGACAAAUCUGCUACAAAGCUUGAGCGCAUCUUCGGAUGCAGAGGCGGCAGCCUUCGGUGGCGCGAUAGCGACAACGUUCUCAACUAUGACACGCAAAACGCGUGCUCCGUUGAAUGGAGUCUAUCAUG, the “polymerase ribozyme fitness (log ratio)” value was not above -4.2.

With GGAUCUUCUCGAUCUAACAAAAAAGACAAAUCUGCUACAAAGCUUGAGAGCAUCUUCGGAUGCAGAGGCGGCAGCCUUCGGUGGCGCGAUAGCGCCAUCGUUCUCAACUAUGACACGCAAAACGCGUGCUCCGUUGAAUGGAGUUUAUCAUG, the “polymerase ribozyme fitness (log ratio)” value was -1.07.

On to GGAUCUUCUCGAUCUAACAAAAAAGACAAAUCUGCGACAAAGUUUGAGAGCAUCUUCGGAUGCAGAGGCGGCAGCCUUCGGUGGUGCGAUAGCGCCAACGUUCUCAACUAUGACCAGCAAAACGCGUGCUCCGUUGAAUGGAGUUUAUCAUG, for which the “polymerase ribozyme fitness (log ratio)” value is -4.15.

As for GGAUCUUCUCGAUCUAACAAAAAAGACAAAUCUGCUACAAAGCUUGAGAGCAUCUUCGGAUGCAGAGGCGGCAGCCUUCGGUGGCGUGAUAGAGGCAACGUUCUCAACUAUGACACGCAAAACGCGUGCUCCGUUGAAUGGAGUUUAUCAUG, the “polymerase ribozyme fitness (log ratio)” value is not above -4.2.

With GGAUCUUCUCGAUCUAACAAAAAAGACAAAUCUGCUACAAAGCUUGAGAGCAUCUUCGGAUGCAGAGGCGGCAGCCUUCGGUGGCGCGAUAGCGGCAACGUUCUCAACUAUGACACGCAAAACGCGUGCUCCGUUGAAUGGAGUUUAUCAUG, the “polymerase ribozyme fitness (log ratio)” value was -2.94.

As for GGAUCUUCUCGAUCUAACAAAAAAGACAAAUCUGCUACAAAGCUUGAGAGCAUCUUCGGAUGCAGAGGCGGCAGCCUUCGGUGGCGCGAUAGAGCCAACGUUCUCAACUCUGACACGCAAAACGCGUGCUCCGUUGAAAGGAGUUUAUCAUG, the “polymerase ribozyme fitness (log ratio)” value is not above -4.2.

Take GGAUCUUCUCGAUCUAACAAAAAAGACAAAUCUGCUACAAAGCUUGAGAGCAUCUUCGGAUGCAGAGGCGGCAGCCUUCGGUGGAGCGAUAGAGCCAACGUUCUCAACUAUGAUACGCAAAACGCGUGCUCCGUUGAAUGGAGUUUAUCAUG: the “polymerase ribozyme fitness (log ratio)” value was not above -4.2.

As to GGAUCUUCUCGAUCUAACAAAAAAGACAAAUCUGCUACAAAGCUUGAGAGCAUCUUCGGAUGCAGAGGAGGCAGCCUUCGGUGGCGCGAUUGCUCCAACGUUCUCAACUAUGACACGUAAUACGCGUGCUCCGUUGAAUGGAGUUUAUCAUG, the “polymerase ribozyme fitness (log ratio)” value is not above -4.2.

Take GGAUCUUCUCGAUCUAACAAAAAAGACAAAUCUGCAACAAAGCUUGAGAGCAUCUUCGGAGGCCGAGGCGGCAGCCUUCGGUGGCGCGAUAGCGCCAACGUUCUCAACUAUGACACGAAAAACGCGUGCUCCGUUGAAUGGAGUUUCUCAUG: the “polymerase ribozyme fitness (log ratio)” value was not above -4.2.

In the case of GGAUCUUCUCGAUCUAACAAAAAAGACAAAUCUGCGACAAAGCUUGAGAGCAUCUUCGGAUGCAGAGGAGGCAGCCUCCGGUGGUGCGAUAGCGCCAACGUCCUCAACUAUGACACGCAAAACGCGAGCUCCGUUGAAUGGAGUUUAUCAUG, the “polymerase ribozyme fitness (log ratio)” value was not above -4.2.

As to GGAUCUUCUCGAUCUAACAAAAAAGACAAAUCUGCGACAAAGCUUGAGAGCAUCUUCGGAUGCAGUGCCGGCAGCCUUCGGUGGCGCGAUAGCGCCAACGUUCUCAACUAUGACACGCAAAACGCGUGCUCCGUUGAAUGGAGUUUAUCAUG, the “polymerase ribozyme fitness (log ratio)” value is not above -4.2.

With GGAUCUUCUCGAUCUAACAAAAAAGACAAAUCUGCUACAAAGCUUGAGUGCAUCUUCGGAUGCAGAGGCGGCAGCCUUAGGUGGCGCGAUAGCGCCAACGUUCUCUACUAUGACACGCAAAACGCGUGCUCCGUUGAAUGGAGUUUCUCAUG, the “polymerase ribozyme fitness (log ratio)” value is not above -4.2.

GGAUCUUCUCGAUCUAACAAAAAAGACAAAUCUGCUACAAAGCUUGAGAGCAUGCUCGGAUGCAGAGGCGGCAGUCUUCGGUGGCGCGAUAGUGCCAACGUUCUCAACUAUGACACGCAAAACGCGUGCUCCGUUGAAUGGAGUUAAUCAUG: the “polymerase ribozyme fitness (log ratio)” value was not above -4.2.

As to GGAUCUUCUCGAUCUAACAAAAAAGACAAAUCUGCAACAAAGCUUGAGAGCAUCUUCGGAUGCAGAGGCGGCAGCCUUCGGCGGCGCGAUAGUGCCAACGUUCUCAACUAUGACACGCAAAACGCGUGCUCCGUGGAAUGGAGUUUAUCAUG, the “polymerase ribozyme fitness (log ratio)” value is not above -4.2.

Regarding GGAUCUUCUCGAUCUAACAAAAAAGACAAAUCUGCGACUUAGCUUGAGAGCAUCUUCGGGUGCAGAGGCGGCAGCCUUCGGUGGCGCGAUAGCGCCAACGUUCACAACUAUGACACGCAAAACGCGUGCUCCGUUUAAUGAAGUUUAUCAUG, the “polymerase ribozyme fitness (log ratio)” value was not above -4.2.

As to GGAUCUUCUCGAUCUAACAAAAAAGACAAAUCUGCGACACACCUUGAGAGCAUUUUCGGAUGCAGAGACGGCAGCCUUCGGUGGCGCGAUAGCGCCAACGUUCUCAACUAUGACACGGAAAACGCGUGCUACGUGGAAUGGAGUUUAUAAUG, the “polymerase ribozyme fitness (log ratio)” value is not above -4.2.

Consider GGAUCUUCUCGAUCUAACAAAAAAGACAAAUCUGCGACAAAGCUUGAGAGCCUCUUCGGAUGCAGAGGCGGCAGCCUUCGGUGGCGCGAUAGCGUCAACGUUCUCAACUAUGACACGCAAAACGCGUGCUCCGUUGAAUGGAGUUUAACUUG, for which the “polymerase ribozyme fitness (log ratio)” value was not above -4.2.

In the case of GGAUCUUCUCGAUCUAACAAAAAAGACAAAUCUGCUACAAAGCUUGAGAGCAUCUUAGGAUGCAGAGGCGGCAGCCUUCGGUGGCGCGAUAGCGCCAACGUUCUCAACUAUGACACGCAAAACGCGUGCUCCGUUGAAUGGAGUUUAUCAUG, the “polymerase ribozyme fitness (log ratio)” value is -0.483.

GGAUCUUCUCGAUCUAACAAAAAAGACAAAUCUGCUACAAAGCUUGAGAGCAUCUUCGGAUGCAGGGGCGGCAGCCUUCGGUGGCGUGAUAGUGCCAACGUUCUCAACUAUGACACGCAAAACGCGUGCUCCGUAGAAUGGAGUUUAUCAUG: the “polymerase ribozyme fitness (log ratio)” value was not above -4.2.
